Assay results from patent US20250026841A1 (AP BIOSCIENCES, published 2025).
Like-named read-outs stand apart in the source and are kept apart here.

Assays:
[1] = target: T1, mouse Fc tagged human CD137 protein (AcroBiosystems, Cat #41B-H5256) (human, UniProt Q07011 24-186); assay: BLI (Octet), biotinylated p95 peptide on SA sensor, antibody 100 nM, then CD137-mFc 100 nM
T1 construct: extracellular domain; Bought protein; also called CD137 extracellular domain fused with mouse Fc tag recombinant protein; human CD137 antigen
Protocol: The binding activities of anti-p95HER2-CD137 bispecific antibody was determined by ForteBIO® (Menlo Park, Calif.) biosensor analysis. In this method, the custom synthesis biotinylated Her2 p95 peptide (GenScript) was loaded onto SA (Streptavidin, ForteBIO, Cat #18-5019) biosensor at 50 μg/mL for 5 minutes. Sensors then were exposed to antibody samples at 100 nM for 5 minutes follow by associating with the mouse Fc tagged human CD137 protein (AcroBiosystems, Cat #41B-H5256) at 100 nM for 5 minutes. The binding chart were produced by Octet Data Acquisition and Analysis Software.

[2] = target: T2, CD73 (antigen of the CD73 ELISA) (UniProt P21589 27-547, limits assumed); assay: phage ELISA on coated CD73-flag-HIS; X-flag-HIS control bars not seen above the axis
T2 construct: the ELISA antigen is not described
T2 sequence (looked up): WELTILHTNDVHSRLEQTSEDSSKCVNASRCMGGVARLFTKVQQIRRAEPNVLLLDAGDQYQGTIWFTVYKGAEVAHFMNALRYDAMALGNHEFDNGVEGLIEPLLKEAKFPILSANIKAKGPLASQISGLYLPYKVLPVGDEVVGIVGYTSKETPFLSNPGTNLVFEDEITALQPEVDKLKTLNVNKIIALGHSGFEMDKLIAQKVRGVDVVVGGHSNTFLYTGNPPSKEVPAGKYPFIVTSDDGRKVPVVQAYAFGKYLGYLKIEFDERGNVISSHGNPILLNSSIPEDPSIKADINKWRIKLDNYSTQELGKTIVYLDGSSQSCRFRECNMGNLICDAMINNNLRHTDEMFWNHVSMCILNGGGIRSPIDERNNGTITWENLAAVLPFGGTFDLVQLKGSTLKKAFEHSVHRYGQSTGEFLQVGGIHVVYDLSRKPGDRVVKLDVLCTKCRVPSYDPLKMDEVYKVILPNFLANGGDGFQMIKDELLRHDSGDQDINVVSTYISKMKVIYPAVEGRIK

[3] = target: T3, CD73, cell membrane-bound (expressed by MDA-MB-231 cells) (human, UniProt P21589 27-549); assay: flow cytometry, antibody 4 µg/ml on MDA-MB-231 cells, A488 anti-human IgG
T3 construct: whole, on cells; also called CD73-expressing MDA-MB-231 breast cancer cells
T3 sequence (looked up): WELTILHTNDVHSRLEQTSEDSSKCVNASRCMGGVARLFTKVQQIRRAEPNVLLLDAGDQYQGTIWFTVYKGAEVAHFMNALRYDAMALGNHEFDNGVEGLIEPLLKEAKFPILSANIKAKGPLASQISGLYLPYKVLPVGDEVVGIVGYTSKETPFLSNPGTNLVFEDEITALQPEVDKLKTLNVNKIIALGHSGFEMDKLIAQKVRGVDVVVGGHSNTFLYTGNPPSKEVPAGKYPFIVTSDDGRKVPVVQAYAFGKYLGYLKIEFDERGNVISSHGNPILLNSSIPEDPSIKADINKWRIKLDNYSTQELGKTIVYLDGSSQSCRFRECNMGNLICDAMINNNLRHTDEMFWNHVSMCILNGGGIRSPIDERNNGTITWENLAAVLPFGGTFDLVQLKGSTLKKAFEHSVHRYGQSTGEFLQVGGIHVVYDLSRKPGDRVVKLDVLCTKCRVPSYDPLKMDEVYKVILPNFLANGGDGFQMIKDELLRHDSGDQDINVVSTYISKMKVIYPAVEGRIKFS
Protocol: As illustrated in FIG. 15 the binding activity of anti-CD73 antibody leads was assessed by flow cytometer. MDA-MB-231 cells (1×10^5 cells) were surface stained with anti-CD73 antibody (4 μg/ml) for 30 minutes, then incubated with A488-conjugated anti-human IgG secondary antibody for 15 minutes on ice. Cells were analyzed by flow cytometer, and A488 fluorescence intensity was shown by histograms (left) and number (right table). As illustrated in FIG. 16 the blockade of CD73 enzymatic activity by anti-CD73 antibody leads was assessed. The enzymatic activity of CD73 expressed by MDA-MB-231 on the cell surface was blocked by anti-CD73 antibody leads.

[4] = target: T2, CD73 (antigen of the CD73 ELISA); assay: phage ELISA on coated CD73-flag-HIS; X-flag-HIS control bars not seen above the axis; remark: listed apart in the source
[5] = target: T3, CD73, cell membrane-bound (expressed by …); assay: cell-based or functional assay
[6] = target: T4, soluble CD73 secreted by MDA-MB-231 cells (human, UniProt P21589 27-549, limits assumed); assay: cell-based or functional assay
T4 sequence (looked up): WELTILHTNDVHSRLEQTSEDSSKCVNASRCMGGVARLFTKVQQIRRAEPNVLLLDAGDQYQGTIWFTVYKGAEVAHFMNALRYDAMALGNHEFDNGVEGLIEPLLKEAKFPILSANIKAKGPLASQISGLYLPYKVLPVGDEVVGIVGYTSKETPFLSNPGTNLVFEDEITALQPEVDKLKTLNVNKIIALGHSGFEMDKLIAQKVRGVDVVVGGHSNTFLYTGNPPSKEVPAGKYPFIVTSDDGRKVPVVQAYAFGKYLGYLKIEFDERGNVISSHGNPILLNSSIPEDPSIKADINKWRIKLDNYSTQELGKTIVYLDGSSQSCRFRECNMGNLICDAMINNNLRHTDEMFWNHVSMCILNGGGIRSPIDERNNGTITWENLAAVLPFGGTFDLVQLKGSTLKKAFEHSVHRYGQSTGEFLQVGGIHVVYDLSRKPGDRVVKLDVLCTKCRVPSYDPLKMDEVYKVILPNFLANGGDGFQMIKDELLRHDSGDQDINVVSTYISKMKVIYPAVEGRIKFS

[7] = target: T1, mouse Fc tagged human CD137 protein …; assay: BLI (Octet), hCD73-His on HIS1K sensor, antibody 100 nM, then CD137-mFc 100 nM
Protocol: The binding activities of the AP601 was determined by ForteBIO® (Menlo Park, Calif.) biosensor analysis. In this method, the His tagged human CD73 protein (AcroBiosystems, Cat. No. CD3-H52H7) were loaded onto HIS1K (Anti-Penta-HIS) biosensor (Cat. No. 18-5120) at 5 μg/mL for 5 minutes. Sensors then were exposed to antibody samples at 100 nM for 5 minutes follow by associating with the mouse Fc tagged human CD137 protein (AcroBiosystems, Cat. No. 41B-H5256) at 100 nM for 5 minutes. The binding chart were produced by Octet Data Acquisition and Analysis Software.

[8] = target: T5, his-tagged human CD73 (AcroBiosystems, Cat. No. CD3-H52H7) (human, UniProt P21589 27-547); assay: BLI (Octet), antibody on AHC sensor, hCD73-His 2-fold from 30 nM, 7 points
T5 construct: Bought protein; also called hCD73-His; human CD73 antigen; not shown: His tag
T5 sequence (looked up): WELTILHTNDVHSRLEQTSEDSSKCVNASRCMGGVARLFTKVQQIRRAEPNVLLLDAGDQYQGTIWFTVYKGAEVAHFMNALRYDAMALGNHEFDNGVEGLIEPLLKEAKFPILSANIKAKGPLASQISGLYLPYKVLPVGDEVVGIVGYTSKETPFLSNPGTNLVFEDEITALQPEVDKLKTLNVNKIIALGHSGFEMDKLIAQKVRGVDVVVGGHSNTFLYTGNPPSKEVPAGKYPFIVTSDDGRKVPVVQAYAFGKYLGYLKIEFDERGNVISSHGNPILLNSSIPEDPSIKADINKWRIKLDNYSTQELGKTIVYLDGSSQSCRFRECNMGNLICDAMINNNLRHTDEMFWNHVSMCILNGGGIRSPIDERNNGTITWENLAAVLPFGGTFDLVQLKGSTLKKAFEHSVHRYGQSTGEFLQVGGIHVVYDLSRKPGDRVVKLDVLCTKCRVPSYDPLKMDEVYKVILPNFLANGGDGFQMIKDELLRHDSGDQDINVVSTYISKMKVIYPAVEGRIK
Protocol: (§1) The affinity of anti-CD73 mAbs and bsAbs were determined by biolayer interferometry analysis (ForteBIO, USA). In this method, anti-CD73 antibodies were loaded at 5 μg/mL on AHC (Anti-Human IgG Fc Capture, ForteBIO, Cat. No. 18-5060) for signal reach to approximate 0.5 nm. Sensors then were exposed to his-tagged human CD73 (AcroBiosystems, Cat. No. CD3-H52H7)-containing solutions that 2-fold serial diluted from the top concentration 30 nM for total 7 points. Measurements were performed as follows: 1 minute baseline in kinetic buffer, 5 minutes association in hCD73-His-containing solutions, and 5 minutes dissociation into kinetic buffer. The kinetic parameters were calculated and produced by Octet Data Acquisition and Analysis Software.

[9] = target: T5, his-tagged human CD73 (AcroBiosystems, …); assay: biolayer interferometry; antibody captured on AHC sensor, hCD73-His as analyte
Protocol: as §1

B1: anti-p95HER2 antibody clone R4-11 (antibody, human IgG1, kappa, V domains shown)
VH: QITLKESGPTLVKPTQTLTLTCTFSGFSLSTSGVGVGWIRQPPGKALEWLALIYWDDDKRYSPSLKSRLTITKDTSKNQVVLTMTNMDPVDTATYYCAHAHPFSGSYNFWGQGTLVTVSS
VL: DIVMTQSPDSLAVSLGERATINCKSSQSVLFSSNNKDYLAWYQQRPGQPPKLLIHWASTREPGVPDRFSGSGSGTDFTLTISSLQAEDVAVYYCLQSYSNPPTFGQGTKVEIKR
notes: also called p95HER2 #R4-11; #R4-11 mAb
B1: no binding (tested: 100 nM) [1].

B2: anti-CD73 antibody clone 3-4 (antibody, V domains shown)
VH: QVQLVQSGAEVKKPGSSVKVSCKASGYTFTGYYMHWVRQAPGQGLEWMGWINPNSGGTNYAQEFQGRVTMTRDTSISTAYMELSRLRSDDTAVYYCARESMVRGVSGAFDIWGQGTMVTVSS
VL: QSALTQPASVSGSPGQSITISCTGTSSDVGSYNLVSWYQQHPGKAPKLMIYEGSKRPSGVSNRFSGSKSGNTASLTISGLQAEDEADYYCCSYAGSSGWDIGTGTKVTVLG
notes: also called CD73 #3-4; CR3-4
B2: binds [2]; binds [3].

B3: CR3-1-37 (antibody, IgG1, V domains shown)
VH: QVQLVQSGAEVKRPGSSVKVSCKASGGTFSSYAISWVRQAPGQGLEWMGGIIPIFGTANYAQKFQGRVTITADESTSTAYMELSSLRSEDTAVYYCARGVSYYYGMHVWGQGTTVTVSS
VL: SYVLTQPPSVSVTPGKTARIACGGNNLESKIVSWYQQKPGQAPVLVIFYDTDRPSGISERFSGSNSGNTATLTISRVEAGDEADYYCQVWDSNSDHVIFGGGTKLTVLG
notes: also called anti-CD73 antibody clone 3-1-37
B3: binds [4]; binds [3].

B4: anti-CD73 antibody clone 3-1-28 (antibody, human IgG1, lambda, N297A, V domains shown)
VH: QVQLVQSGAEVKKPGSSVKVSCKASGGTFSSYAISWVRQAPGQGLEWMGRIIPILGIANYAQKFQGRVTITADKSTSTAYMELSSLRSEDTAVYYCARDSPVHYYGSGSYYRDAFDIWGQGTMVTVSS
VL: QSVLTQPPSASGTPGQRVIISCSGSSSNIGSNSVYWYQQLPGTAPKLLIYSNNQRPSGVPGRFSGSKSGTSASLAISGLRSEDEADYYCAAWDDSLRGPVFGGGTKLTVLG
notes: also called CD73 #3-1-28; parental #3-1-28
With B4 the “IC50, inhibition of cell membrane-bound CD73 enzyme (AMP-Glo, MDA-MB-231 cells)” value [5] was 0.49 nM, the “IC50, inhibition of soluble CD73 enzyme (AMP-Glo, MDA-MB-231 cultured medium)” value (“IC50, inhibition of soluble CD73 enzyme” below) [6] was 1.48 nM and the binding result [7] was “no binding (tested: 100 nM)”. For the same binder, the Kd [8] was 1.04 nM.

B5: anti-CD73 #3-1-28-v3 (antibody, human IgG1, lambda, N297A, V domains shown)
VH: QVQLVQSGAEVKKPGSSVKVSCKASGGTFSSYAISWVRQAPGQGLEWMGRIIPILGIANYAQKFQGRVTITADKSTSTAYMELSSLRSEDTAVYYCARDSPVHYYGDGTYYRDSFDIWGQGTMVTVSS
VL: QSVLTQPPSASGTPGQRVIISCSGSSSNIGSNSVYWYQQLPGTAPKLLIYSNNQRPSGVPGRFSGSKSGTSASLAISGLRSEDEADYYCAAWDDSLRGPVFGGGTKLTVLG
notes: also called #1911-030; anti-CD73 #3-1-28 (S107D S109T A114S)
For B5, the “IC50, inhibition of soluble CD73 enzyme” value [6] was 0.241 nM, the “fold improvement of binding affinity against parental #3-1-28” value (“fold improvement of binding affinity” below) [9] was roughly 2 fold and the Kd [8] was 0.553 nM.

B6: anti-CD73 #3-1-28-v2 (antibody, human IgG1, lambda, N297A, V domains shown)
VH: QVQLVQSGAEVKKPGSSVKVSCKASGGTFSSYAISWVRQAPGQGLEWMGRIIPILGIANYAQKFQGRVTITADKSTSTAYMELSSLRSEDTAVYYCARDSPVHYYGDGHYYRDAFDIWGQGTMVTVSS
VL: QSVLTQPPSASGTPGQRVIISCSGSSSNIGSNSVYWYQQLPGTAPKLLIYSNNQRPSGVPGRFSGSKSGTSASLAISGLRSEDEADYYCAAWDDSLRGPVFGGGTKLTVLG
notes: also called #1911-022; anti-CD73 #3-1-28 (S107D S109H)
In the case of B6, the “IC50, inhibition of cell membrane-bound CD73 enzyme (AMP-Glo, MDA-MB-231 cells)” value [5] is reported as 0.245 nM, the “IC50, inhibition of soluble CD73 enzyme” value [6] is reported as 0.273 nM and the “fold improvement of binding affinity” value [9] is reported as roughly 2 fold. For the same binder, the Kd [8] was 0.523 nM.

B7: anti-CD73 #3-1-28-v1 (antibody, human IgG1, lambda, N297A, V domains shown)
VH: QVQLVQSGAEVKKPGSSVKVSCKASGGTFSSYAISWVRQAPGQGLEWMGRIIPILGIANYAQKFQGRVTITADKSTSTAYMELSSLRSEDTAVYYCARDSPVHYYGSGSYYRDAFDIWGQGTMVTVSS
VL: QSVLTQPPSASGTPGQRVIISCSGSSSNIGSNSVYWYQQLPGTAPKLLIYANNERPSGVPGRFSGSKSGTSASLAISGLRSEDEADYYCAAWDDSLRGPVFGGGTKLTVLG
notes: engineered IgG1 constant region; also called #1919-003; anti-CD73 #3-1-28 (S51A Q54E)
B7 was tested, and the “IC50, inhibition of cell membrane-bound CD73 enzyme (AMP-Glo, MDA-MB-231 cells)” value [5] was 0.213 nM, the “IC50, inhibition of soluble CD73 enzyme” value [6] was 0.187 nM and the “fold improvement of binding affinity” value [9] was roughly 2 fold. The Kd [8] was 0.344 nM.

B8: CR3-16 (antibody, IgG1, V domains shown)
VH: QVQLVQSGAEVKKPGASVKVSCKASGYTFTDFYIHWVRQAPGQGLEWMGWINPYSGSTNYPQKFQGRVTMTRDTSISTAYMDLSSLTSDDTAVYLCVRGRWFDFDYWGQGTTVTVSS
VL: QSALTQPPSVSGSPGQSITISCTGTSSDVGTYNFVSWYQQHPGKVPKLIIYDVSNRPSGVSIRFSGSKSGNTASLTISGLQAEDEADYYCSSFRSGSTYVFGTGTRVTVLG
notes: also called anti-CD73 antibody clone 3-16
B8: binds [2]; binds [3].
